Laboratory results from FireProtDB (doi:10.1126/science.aai7825).

Conditions: Escherichia coli (strain K12); pH 7.5; Thermal; Intensity; HEPES 20mM; transition: 2

Chain of Adenylate kinase wild type, P69441 (P69441 whole entry): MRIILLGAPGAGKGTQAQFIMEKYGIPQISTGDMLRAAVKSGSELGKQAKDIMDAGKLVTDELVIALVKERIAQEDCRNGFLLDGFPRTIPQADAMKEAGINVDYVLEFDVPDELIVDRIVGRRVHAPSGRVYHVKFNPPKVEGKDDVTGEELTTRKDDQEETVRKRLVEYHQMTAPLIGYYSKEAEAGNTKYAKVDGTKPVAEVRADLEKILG

Substance Adenylate kinase wild type, P69441 has a Tm of 42.5 °C.
